Results taken from the DeepSol protein solubility set.

Assay: soluble on expression in E. coli; label from the status in PepcDB or PDB records

Soluble on expression in E. coli, not soluble:
MGSDKIHHHHHHMKLRELLSIGDLKKGKILTKEIGLDNEVDSAMVLEAIDIENWSRKNQLILTSFYALHDLPEKELENFFVKMRRIGISGLILKTDRFIKMIPEWFIELCFNYEIPLIKITQDISYEKILFTIYEPLLNYQSHVLRTYYDVRQRFTKLERHYPTVETIMQEFYDIIKLPFALKMLDKHLEISDGDLPHDAIVLSREKLKNSEFTKNDYSLLTLYSHANPKKQLALEVSIFNSYSTNCLLLVYLQDEKVKETDLVIIENAIDVLQEKFNTENLLKKERYTRLNNLADAILQNTPQNPDELNSLLREVQMQELDSYQAIAFSTKDTNTQLMKERIIALLRTLRVKSIFFDQLNYSAVLFNFNESDGKITKLQLSRLLAELLEENDTLTVAVSSLKSREGIKELLIECLDILRFNETFYNGPIVTLADIGVFKNFIREDQLENLDELIPRALYQLAENNYDLFETLYSFFQNNRNYKQTSEAMFLHSKTIRYRLNKVEQLLDIDLANPLQLLNYEIATYIIKMRRRALEKQSNTR
MGSDKIHHHHHHMKLSRLKRKHKRVISVGKIAEQFWCEMKVELKLLYDIKPSNALVRKGKRIHDEISGKASLPRPKNFIDWLGGQIYFTNLSIESFLKSGLGREVFLVTKVDGDGWRWYLSGSIDEIRKKGGRTQVVERKTRLREEVPENESHKVQGLLYHLMLDEARRQKVSRNVKRAYGVVERAAISKEFSQAVGMTERNVKAMLRTLDSKLPMIPELDEEVVVIYESQKTGERIGEVRFKAQREEIERILQFSREYWAGEREALKTRENWKCRFCEVRKYCL
MGSDKIHHHHHHMKLTCMQEDLKRGLAAVGHAVAGKSTLPVLANILLATDEGRLKLTATNLEVGINRWISATITRDGAVAVPAKLLTDVVGGLPNDKVTLSLDQKTQTLRVECGRFVSNIKGVDADEFPSLPTVSAQTPLVSLPAEVWQEAIDQVAFAAATDESRPILTGVLVRTRDQQVTLVAADGFRLAMRTIQLSAPVAHAVDCLIPARTLSELARIIGDTDAEVAMVYTPGGSHVLFHTENIEVVSRLIEGRFPDFERIIPQQYLTRMVLDNSELAKAVKLASFFAGSSQNVVKLKIEPASELAPGRVVISANAAELGDNTSELDGSVTGEGGVIALNVRFLADAIAAVHSNQIAFEMQSAQSPAVFKPVGQDGYIHIVMPMSMR
MGSDKIHHHHHHMKNFIRKLIRALTAIRLETDRYKHSTLRIIINWLTAFLKDLFSAQEIRLYGLADPEDGANRIRQYVSKEMADRFYRKYNPGAAVPNIEDKFIFTTLCLQHHLPIPATYGIFKQGIVKTFDERIFQESSRFRDFIRELEPGEYLLKPNNGMLGLGLSILEIDDQGSLKFQGKSITADDLYRELCSIEVTLPASSKGDSVDMDFEGLLFQQRIANHPEITKLTGFKMLQTIRICTHVTDNNQVEILFAFMKLAGQEGLADAFNLGKTGNMLAKIDPATGKFCNVYAMDQQQGYLVETTHHAVTQANLLNFTVPHWQACLTLAMKLSTTFLPLRAVGWDIAITDNRPVVLEGNDNWVPVVPFDINIDKLKQYKLKS
MGSDKIHHHHHHMKNLRLTLAVIAGKILIYISRLLGHQGTSLPGRIARKIYPRILRTLSTNIRREIVVITGTNGKTTTSNMLAEILQQQGYSLVHNRLGANMLSGITTAFIEKSDIYGSRRFDYALLETDEATVPLLLRETRPRLVLITNFFQDQLDRYGEMDHTIKLIQEAVKDQEIEMLLNADDPLTANFEAETGLKCRYYGFDGNSCDSNRSIDSREVRYCAFCGHPLEYEKYHYAQLGQYSCPQCHSCNPERDFTGQELEMSPDIELKVDGMALKSPYQGFHNAYNILAAVSLARLLGVEEENIKKAIASFQPQAGRMEAFFINGKRVVLALVKNPAALNQTLASLIYDPSRKNLFFALNDNAADGRDISWIWDADVELLEYENVMVEQIVCSGQRSGDIALRFKYAGFPQERIRIEAELPRAIELAVQGSAESSYILCSYTALFACQRILREMEKRSGAGEETEKAYQPQS
MGSDKIHHHHHHMKNVNQELLNHVILHKDRIPHFHKDFPLILFWSHRSGCTTLANWFFFQIGLFNEAKKYHDFIHYYEFWVYKNNTNYIPELQNGLLTAEKAVCKLVRNPYTRAVSSFLLLADNPYAIPQWESIRQYLYNDKYSNRGISFKQFLYYVRALGPNSLTMDIHFSQQYVPGEENFIQHYIPLEDFNTQITKIEHTYDLVKSNLALLTNSDHHRAHKMMYTGSYAELSITDVAFPRFPTYESFYDEETMALVTEIYAQDFEMYPYTKGIF
MGSDKIHHHHHHMKNYTPIQTETTQNHSKSAGMNNQTEKVLDFDECITFLNKKGKELFGLKFFIDPADYEVVYKILIYIIKDERNAQRHKISLDKGIMLSGPVGCGKTTLMNLMNHIIPVANRYIVRSCRLVSYDFISQGYDAIHKYSYQSFKNNKKVVTPQAWCFDDLGTESSLKYYGNECNVMAEILLSRYDLFIEKDMVTHITTNLVAEEIESFYGVRVRSRMREMFNLISFDRNSKDKRV
MGSDKIHHHHHHMKPIDIKENKNPVESAQFGKTQDEPLSDKTHVQISDEATQWLLTIEEDDSENNQQALNAWLSLSAQHKKVYQQLQTLWEVADELPVDLFSEDLLGLSMTPSSAVNTSSRVNPYALKKESILAKFISFFTLRKTMYTASFASVIFATFITFTQYNREMVTTDKPLQVASSSTLRTNEYQTKLGEHKTITAQDGSIIVLAAKSQVFIDYSANRRDIHLLYGEALFTVEKDKERPFIVHNHGRSVQALGTIFNVRESKSAMQVSVLEGIVEVNVEPEVKSKVTNSSDKNQVATLVAGQALELDSLGQFSTTYAIEVNERMAWQDGRLNYVNTDLANVIFDLKRYSTLSIHIPNKQVANMGYTGSVIYDKVDDWLIALPYIFPVEVQRHGNSVVIVKRKE
MGSDKIHHHHHHMKPSRFNLVINESDGTLLFNTLSQALLWIDRKNTNKVLKTLEDPSSTELSKTEVEKLKRGMFLLDDNFDELEFLKFRFNTYRYSDRFLRYTIVLTHSCNFDCVYCYQKVLHISSGSYISEKVQSNFLLDVERKLEYQKPNLLSVTFYGGEPLLLEETVVNLSSKLKRLCEKYGVKYDSFIVTNGYLLTEKMVDDLQKAGIKALDITLDGTEVYHDRYRKARNGAPTFSSIFENIFRAVNKGLFVQIRVNVSRENIEDVKKLIDRIAEKKLRVEFNFQPIEIVEGNPTGFQDTALNTEEFAEIETKLWWYIREKIPEYPFEYFKKPRFARCDAMCKNSFVVDVDGRVYKCWGELGMENCSGFLKETGVEFTGSYLKWLTYDPLEDEECRRCLVLPFCMGGCAFNRVVYRTLKSSKVKKPHTCIPLRYNLNEFIKIVADYKRRSAVHGISQRSSGG
MGSDKIHHHHHHMKQILNTLYVMTQGAYVCLDHETVKVEVKGALQMQVPLHHLGAIVTMGNVMMSPFIMARCAEDGRALVILDRNGKFKCRVVGKTSGNVLLRQTQYEAVRDRERSAAIARNMVAGKVKNARQILMRGARETTDADESAVLRKAGDTLADALFHLKDATDIDHVRGLEGEAANAYFQVFDRMVKEEERPAFRMNGRNRRPPLDPMNALLSFLYTLLLNDCISAVEGVGLDSQMGFLHVLRPGRPSLGLDIMEEFRAVLADRLALTLINRKQITEKHFEVRPGGATYLDDAGRKEVIMAYQKRKQDEFHHPVLDQKVPFGLLPHVQARLLARHLRGDLEQYTPVLYS
MGSDKIHHHHHHMKQMKIPATYMRGGTSKGVFFALKDLPLNAQQPGPARDALLLRVIGSPDPYGKQTDGMGGATSSTSKTVILDKSQRDDHDVDYLFGQVAIDKPFVDWSGNCGNLTAAVGAFAITQGLVDSAKIPDNGIAVVKIWQANINKTIIAHVPMVDGEVQELGDFELDGVTFPAAEVLVEFVDPADGEGDMFPTGNLVDKLEVPGEPVFDATFINAGIPTIFLKAEQLGYEGTELQEAINGDAAALERFETIRAHGALQMGLIQSLDEAAGRQHTPKIAFVAPAKAYTSSSGKQIAAEEIDLHVRALSMGKLHHAMMGTAAVAIGTAASIPGTLVNQAAGGQARESVRFGHPSGTLKVGAKASEQEGRWQVEKVSMSRSARVLMQGWVCVPESLG
MGSDKIHHHHHHMKQVSIIGAGIGGLTAAVRLQKLGYNVTIYEQNAQPGGKMNQIVSQGFTFDVGPTIVMMKDIYEEVFRFCGVDPHNYLPFEEVQPLMHLVFGDQSSLDLSRDLPTLIAEINRIAPDDVNGMLNFLADIYHRYTIAKPNFLERSFRNWRDFYNLPALYAGLQLRTFNNAYKNIAKFIKNENLRNSLAFQTLYIGISPYQGPSLYNIIPMIELFYGVYFLKGGMYTVVNSLVKLFKEQGGTLKLATPVQEIIIKDKVAVGIRVNNHPIHSDYVLCNADFPTAMTTLIPNEQDRGQYTDQKIAKMDYSCSCLVLYLGLDKKYPTEALHTIHFAQDFSKNVADLFDNGKLPEDPSYYVYVPSKMDPSLAPENSEALYVLVPVPELSKFNDWSPTTLKNYRQLIINKLRQTATFSDIEQHIVVEKQFTPVDFKEQFGAYNGATFGLRPTLKQSNYYRPHNKFDYADHLYFCGSSTHPGAGVPIVMQSAKLAVEELIKDDQTNA
MGSDKIHHHHHHMKRVERVIITCAVTGSIHTPSMSPYLPVTPEQIAADSVAAAQAGAAMLHLHARNPRTGRPEQTPERFMEFLPRIREQCGAILNITTGGGLGMTLEERLAPAIAARPEVASMNMGSLNFNISGAAGKIRQFQHEWEKPYLEGTNDFILSNTFSQIEHGMRVLGESGTRFEFECYDVGHLYNLAHFVDRGLVKPPFFVQCIFGILGGIGADPENLLHMRAIADRLFGADYLLSVLAAGRHQMPFVSLSAILGGSVRVGLEDSLFIARHQLARSNAEQVAKIRRIVEELGLTVATADEARAMLATKGGDNVGF
MGSDKIHHHHHHMKSAPDWIAHPDTPYLLIDEAKLKSNINYLKQRVESLGSHLRPHLKTLRTLEAAGYLLDSKSAPATVSTLAEAEAYAKAGYTDLLYAVGIAPAKLKRVAALRQQGINLHILLDNITQAQAVVDYAAEFGQDFSVFIEIDSDDHRGGIKPSDSKLLTIAKTLGEHFTGLMTHAGGSYACNTEQGLKNFAKQECDAVRIARNNLETAGIHCAITSVGSTPTAHFGEDFSDISEVRAGVYTTFDLVMKNIGVCDFSHIAMSVVTTVIGHNKEKNWLLTDSGWMALSRDSGTAGQNRDFGYGQVCKIDGSVLDGLCVNSTSQEHGVIELSDAYQLEDFPVGHQLRIMPNHACATAAMHPVYHVLMSDGSHNTWQRITGW
MGSDKIHHHHHHMKSDTEEKYLQQVNRVIDYINSHLNEPLRVETLAREVCLSEYHFHRIMRAYLHEPLATYIARQRVERAVMYLQMKNIRLAQVAEMVGYETPQSLSKAFKQFFGISPTAYRKRRAERYEEFSTLKKESLKPEILTEPELKLVYIRIIGRYGEEEPYIEAWRKLRDFLQINGLLTPSTRWIGISFDDPTVTKTEQCRFYACATVEHDVSPQGAFGMKTIPQGRYAVYTLRGSYSGLQEMYDRIYSHPLPTAFRDATSFEEYLNCEPDTEEKDYVTRIYIPIE
MGSDKIHHHHHHMKSPTPALMLQGTSSNAGKSILTAAFCRILLQDGYRVAPFKAQNMALNSHVTADGLELGRAQAVQAAACRLDVDVRMNPVLLKPNSDTGSQVVVMGRPVGNMRVREYMAYKPVAFDAARAAYDSLAADVDVMVLEGAGSPAEVNLKAHDIVNMAMARHAEAKVLLVGDIDRGGVFASLVGTMELLDPWERDLVAGFVLNKFRGDATLLSPAYDVVTGRTGKPFLGVVPWLHDLGLPDEDSVSFRETLAGRAPDVPAGGGMLDIVLVDLPHISNFTDLDALRREPDVAVRVVRSPEQLGSPDAIILPGSKNTLGDLAALRSRGMAEALCALRSAEGGHLGPVIVGICGGFQMMGRFLADPQGVESDHACTEAGLGLLPVTTEMGSAKVLRRTSAKTVSGWCGAGVAAGLMPGTGGGHGGAEVCPGEGYAVHGYEIHHGVTTPDAGGGAVLVCLHESDGSPAGWTTPDGQVWGTYLHGVFDADGFRRGWLDALRVRRGLEPVGRVVARYDLDPALDRLADVVREAVDMGHIYSVLGLSPKGRRQT
